From publication PMC12103069, “Structure predictions of MuRF1‐UBE2 complexes identify amino acid residues governing interaction selectivity for each MuRF1‐E2 pair” (The Febs Journal, 2025)

T1: GST-MuRF3RM (MuRF3 amino acids 1-115, RING and MFC domains) (UniProt Q9ERP3 1-115)
T1 construct: Cloned in pGEX6P3
T1 sequence (looked up): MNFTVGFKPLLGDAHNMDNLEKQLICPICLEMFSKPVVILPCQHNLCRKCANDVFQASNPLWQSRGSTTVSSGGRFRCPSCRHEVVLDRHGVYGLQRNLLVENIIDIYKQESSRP

B1: GST-MuRF1RM (MuRF1 amino acids 1-115, RING and MFC domains) (domain or fragment, Rattus norvegicus)
chain: MDYKSGLIPDGNAMENLEKQLICPICLEMFTKPVVILPCQHNLCRKCANDIFQAANPYWTNRGGSVSMSGGRFRCPSCRHEVIMDRHGVYGLQRNLLVENIIDIYKQECSSRPLQ
modifications: red fluorescent dye NT-647, covalently, by amine coupling (in the fluorescence assay only)
notes: MuRF1 / TRIM63, Rattus norvegicus, first 115 amino acids (RING and MFC domains); Cloned in pGEX6P3; Immobilised unlabelled by amine coupling in SPR; labelled with NT-647 in the fluorescence assay; also called MuRF1 (in the SPR section); not shown: GST, N-terminal, kept
B2: GST-MuRF3 (full length) (enzyme, UniProt Q9ERP3 1-366, looked up)
chain: MNFTVGFKPLLGDAHNMDNLEKQLICPICLEMFSKPVVILPCQHNLCRKCANDVFQASNPLWQSRGSTTVSSGGRFRCPSCRHEVVLDRHGVYGLQRNLLVENIIDIYKQESSRPLHAKAEQHLMCEEHEDEKINIYCLSCEVPTCSLCKVFGAHKDCEVAPLPTIYKRQKSELSDGIAMLVAGNDRVQAVITQMEEVCQTIEDNSRRQKQLLNQRFETLCAVLEERKGELLQALAREQEEKLQRVRGLIRQYGDHLEGSSKLVESAIQSMEEPQMALYLQQAKELINKVGAMSKVELAGRPEPGYESMEQFSVSVEHVAEMLRTIDFQPGAAGDEEDDDMALDGEEGNAGLEEERLDVPEGSGLH
modifications: fluorochrome, covalently (NT-647 by amine coupling in the methods; NT115 in the results)
notes: Cloned in pGEX6P3
B3: UBE2J1 cytosolic part, wild type (domain or fragment, Mus musculus, UniProt Q9JJZ4 1-282, looked up)
chain: METRYNLKSPAVKRLMKEAAELKDPTDHYHAQPLEDNLFEWHFTVRGPPDSDFDGGVYHGRIVLPPEYPMKPPSIILLTANGRFEVGKKICLSISGHHPETWQPSWSIRTALLAIIGFMPTKGEGAIGSLDYTPEERRALAKKSQDFCCEGCGSAMKDVLLPLKSGSGSSQADQEAKELARQISFKAEVNSSGKTIAESDLNQCFSLNDSQDDLPTTFQGATASTSYGAQNPSGAPLPQPTQPAPKNTSMSPRQRRAQQQSQRRPSTSPDVLQGQPPRAHHT
notes: UBE2J1, Mus musculus, cytosolic part (amplified from C2C12 cells); Cloned in pET28a; source: E. coli Rosetta (DE3), purified (Ni-NTA)
B4: UBE2J2 cytosolic part, wild type (domain or fragment, Mus musculus, UniProt Q6P073 1-226, looked up)
chain: MSNNSNKRAPTTATQRLKQDYLRIKKDPVPYICAEPLPSNILEWHYVVRGPEMTPYEGGYYHGKLIFPREFPFKPPSIYMITPNGRFKCNTRLCLSITDFHPDTWNPAWSVSTILTGLLSFMVEKGPTLGSIETSDFTKKQLAAQSLVFNLKDKVFCELFPEVVEEIKQKQKAQDELSNRPQNLPLPDVVPDGELHRGQHGIQLLNGHAPAAGPNLAGLPQANRHH
notes: UBE2J2, Mus musculus, cytosolic part (amplified from C2C12 cells); Cloned in pET28a; also called EJ2c; source: E. coli Rosetta (DE3), purified (Ni-NTA)
B5: UBE2E1 (enzyme, Mus musculus)
chain: MSDDDSRASTSSSSSSSSNQQTEKEGSTPKKKESKVSMSKNSKLLSTSAKRIQKELADITLDPPPNCSAGPKGDNIYEWRSTILGPPGSVYEGGVFFLDITFTPEYPFKPPKVTFRTRIYHCNINSQGVICLDILKDNWSPALTISKVLLSICSLLTDCNPADPLVGSIATQYMTNRAEHDRMARQWTKRYAT
notes: UBE2E1, Mus musculus, full length (amplified from C2C12 cells); Cloned in pET28a; source: E. coli Rosetta (DE3), purified (Ni-NTA)

What was measured:
Assay in all cases: other fluorescence titration; change in the initial fluorescence of dye-labelled GST-MuRF (10 nM, constant) with a 16-sample serial dilution of the E2; MonolithX (NanoTemper), premium capillaries, 100% MST power, 25 °C; 50 mM HEPES pH 7.4, 150 mM NaCl, 0.005% Tween20, 0.1% dextran
Details in all cases: both partners purified
UBE2L3 wild type = target: T2, UBE2L3 wild type (Mus musculus)
T2 construct: UBE2L3, Mus musculus, full length (amplified from C2C12 cells); Cloned in pET28a; source: E. coli Rosetta (DE3), purified (Ni-NTA)

GST-MuRF3 (full length) = target: B2
[1] = target: B1
[2] = target: T1, GST-MuRF3RM (MuRF3 amino acids 1-115, …)

Binder: B1
binding result (UBE2L3 wild type): binds

Binder: B2
Kd (UBE2L3 wild type): 400 nM

Binder: B3
Kd (GST-MuRF3 (full length)): 400 nM

Binder: B4
Kd (GST-MuRF3 (full length)): 24800 nM

Binder: B5
Kd [1]: 400 nM
Kd [2]: 500 nM
